Molecular target: MD39 stabilized gp140 HIV Env trimer (HIV)
Experiment: SEC-MALS

For “MD39 stabilized gp140 HIV Env trimer (domain or fragment)”, the stoichiometry N was 3.
